The assay concerns the target Synechococcus sp. PCC 7002 Type 2 β‐McdB (Synechococcus sp. PCC 7002). Description: SEC-MALS.

On to “Synechococcus sp. PCC 7002 Type 2 β‐McdB (natural protein)”, for which the stoichiometry N was determined as 2.

Source of the values: publication PMC8359340.
